The record followed here is patent publication US20240150440A1 (LUMEN BIOSCIENCE, published 2024).

The labels stand for the following.
B1: MBp-5HVZ-R2C-B3-H6 (VHH, not shown: large carriers; small tags and cut ends)
VHH: QVQLVESGGGLVQPGGSLRLSCAASGTYASYETIAWYRQAPGKQREKVARITGAGSSFYADSVKGRFTISRDNAKNTVYLQMNSLKPEDTAVYYCNADSIPPALRAANTGYWGQGTQVTVSS
B2: MBP-R2C-F6-H6 (VHH, not shown: large carriers; small tags and cut ends)
VHH: QVQLVESGGGLVQPGGSLRLSCAASGRILAANIVHWYRQAPGKEREGVAGITTGGSNYYSDSVKGRFTISRDNAKNTVYLQMNSLKPEDTAVYYCNALGLGSASGSYESWGQGTQVTVSS
B3: MBP-5HVZ-R2A-C5-H6 (VHH, not shown: large carriers; small tags and cut ends)
VHH: QVQLVESGGGLVQPGGSLRLSCAASGTWGNIQYLSWFRQAPGKRREFVAAITPNNGTNYADSVKGRFTISRDNAKNTVYLQMNSLKPEDTAVYYCTAVLWYTTKEGPYDYWGQGTQVTVSS
B4: MBP-5HVZ-R2D-A6-H6 (VHH, not shown: large carriers; small tags and cut ends)
VHH: QVQLVESGGGLVQPGGSLRLSCAASGSGASIGAMHWFRQAPGKGREWVASITSAGNTYYGDSVKGRFTISRDNAKNTVYLQMNSLKPEDTAVYYCNALAGANYESQWEEYNYWGQGTQVTVSS
B5: MBP-R2C-G6-H6 (VHH, not shown: large carriers; small tags and cut ends)
VHH: QVQLVESGGGLVQPGGSLRLSCAASGSIYKYSDVHWFRQAPGKAREAVALLTGAGTTIYGDSVKGRFTISRDNAKNTVYLQMNSLKPEDTAVYYCAAGQGFKATRTFDSWGQGTQVTVSS
B6: MBP-5HVZ-R2E-D2-H6 (VHH, not shown: large carriers; small tags and cut ends)
VHH: QVQLVESGGGLVQPGGSLRLSCAASGHQLSTNATHWFRQAPGKNREFVASIGSGSSSYYADSVKGRFTISRDNAKNTVYLQMNSLKPEDTAVYYCTALGGDELDGMTYDYWGQGTQVTVSS
B7: PP909 MBP-5HVZ-S2b-A7-H6 (VHH)
VHH: QVQLVESGGGLVQPGGSLRLSCAASGSSDSWNALHWFRQAPGKEREFVAGISSAGSGYYADSVKGRFTISRDNAKNTVYLQMNSLKPEDTAVYYCNGYEHTTGYDYWGQGTQVTVSS
notes: Form: Dimer
B8: PP1149 MBP-5HVZ-PAPA-R5a-E5-H6 (VHH)
VHH: QVQLVESGGGLVQPGGSLRLSCAASGYDFDILRMAWFRQAPGKEREMVAAITSAESVNYEDSVKGRFTISRDNAKNTVYLQMNSLKPEDTAVYYCATYDYTDDYGYASWGQGTQVTVSS
notes: Form: Dimer
B9: PP915 MBP-5HVZ-S3b-A7-H6 (VHH)
VHH: QVQLVESGGGLVQPGGSLRLSCAASGSIASINAIHWVRQAPGKQREEVAAITSGGSTGYADSVKGRFTISRDNAKNTVYLQMNSLKPEDTAVYYCAAQPGQSYAVWGQGTQVTVSS
notes: Form: Dimer
B10: PP913 MBP-5HVZ-S3a-C5-H6 (VHH)
VHH: QVQLVESGGGLVQPGGSLRLSCAASGSIKNTNAMHWFRQAPGKDREWVAGITSGGNSNYGDSVKGRFTISRDNAKNTVYLQMNSLKPEDTAVYYCAAFGYRYDQDYTYDYWGQGTQVTVSS
notes: Form: Dimer
B11: PP908 MBP-5HVZ-S2a-C4-H6 (VHH)
VHH: QVQLVESGGGLVQPGGSLRLSCAASGFSESINATAWFRQAPGKQREGVAGLDGGGSDYYSDSVKGRFTISRDNAKNTVYLQMNSLKPEDTAVYYCAAQLTSSFRGYDFTPSNYDYWGQGTQVTVSS
notes: Form: Dimer
B12: PP916 MBP-5HVZ-S3b-A8-H6 (VHH)
VHH: QVQLVESGGGLVQPGGSLRLSCAASGSIISRVKVHWFRQAPGKSREWVAGIDSGTASYYSDSVKGRFTISRDNAKNTVYLQMNSLKPEDTAVYYCAAENRGYGVDWGQGTQVTVSS
notes: Form: Dimer
B13: PP1176 MBP-5HVZ-PAPA-R2a-F3-H6 (VHH)
VHH: QVQLVESGGGLVQPGGSLRLSCAASGSITSINWMHWFRQAPGKDREGVASISQTGRGSYADSVKGRFTISRDNAKNTVYLQMNSLKPEDTAVYYCAAASRTGTPYNYWGQGTQVTVSS
notes: Form: Dimer
B14: PP1148 MBP-5HVZ-PAPA-R5a-C5-H6 (VHH)
VHH: QVQLVESGGGLVQPGGSLRLSCAASGDIFSINALHWFRQAPGKQREEVAAITSGGSTGYADSVKGRFTISRDNAKNTVYLQMNSLKPEDTAVYYCAAQQARGGLDSDYWGQGTQVTVSS
notes: Form: Dimer
B15: PP911 MBP-5HVZ-S2b-F7-H6 (VHH)
VHH: QVQLVESGGGLVQPGGSLRLSCAASGSTLSNNAMHWFRQAPGKAREFVAAIGSSDSTDYKDSVKGRFTISRDNAKNTVYLQMNSLKPEDTAVYYCTALLDSGPGEYNYWGQGTQVTVSS
notes: Form: Dimer
B16: PP910 MBP-5HVZ-S2b-C10-H6 (VHH)
VHH: QVQLVESGGGLVQPGGSLRLSCAASGSAFSLNYMAWFRQAPGKQREGVAIIGSGGSSDYADSVKGRFTISRDNAKNTVYLQMNSLKPEDTAVYYCAAQPNGSPDDFDYWGQGTQVTVSS
notes: Form: Dimer
B17: PP1143 MBP-5HVZ-PAPA-R2b-D5-H6 (VHH)
VHH: QVQLVESGGGLVQPGGSLRLSCAASGYADEINMVHWYRQAPGKGREFVAAIASGGSTFYADSVKGRFTISRDNAKNTVYLQMNSLKPEDTAVYYCAAIPRPSLSYAHDYAYWGQGTQVTVSS
notes: Form: Dimer
B18: PP1131 MBP-4B0F-PAPA-R2b-D5-H6 (VHH)
VHH: B17 VHH
notes: Form: Heptamer
B19: PP1155 MPB-scTRP-PAPA-R2b-D5-H6 (VHH)
VHH: B17 VHH
notes: Form: Trimer
B20: PP1177 MPB-scTRP-PAPA-R2a-F3-H6 (VHH)
VHH: B13 VHH
notes: Form: Trimer
B21: PP1136 MBP-4B0F-PAPA-R5a-C5-H6 (VHH)
VHH: B14 VHH
notes: Form: Heptamer
B22: PP1160 MPB-scTRP-PAPA-R5a-C5-H6 (VHH)
VHH: B14 VHH
notes: Form: Trimer

Broadly, the IC50 is the concentration that gives 50% inhibition. Broadly, the Kd is the equilibrium constant for the complex coming apart. The EC50 is the midpoint of the concentration-response curve. Higher therefore signals weaker potency.

The first experiment concerns the target T1, recombinant SARS-CoV-2 RBD with C-terminal AviTag (SARS-CoV-2, UniProt P0DTC2 319-541).
Assay: not given
As for B1, the IC50 was 1.4 nM and the dissociation constant Kd was found to be 33 nM.
As for B2, the Kd is approximately 3600 nM.
As to B3, the IC50 stood at 13.3 nM.

For a further experiment, the target named is T1, recombinant SARS-CoV-2 RBD with ….
Assay: not given
The source holds these as a separate data set.
In the case of B4, the IC50 amounted to 6.3 nM and the Kd turned out to be 19.6 nM.
On to B5, for which the Kd was approximately 3900 nM.
B6: the IC50 was found to be 6.8 nM and the Kd is 19.1 nM.

The target of a further experiment is SARS-COV-2 Wuhan Reference RBD (SARS-CoV-2, UniProt P0DTC2 319-541). The experiment can be described thus: ELISA, RBD coated. (ELISA stands for enzyme-linked immunosorbent assay.)
The molecule B7 yielded a concentration giving a half-maximal response (EC50) of 0.62 nM.
The same measure, in the same setting: with B8 the figure was 2.5 nM; with B9, 1.05 nM.
Same read-out and setting: then B10, with 1.53 nM.
On the same count and under the same terms, then B11, with 1.59 nM; and B12, with 1.19 nM; and B13, with 0.29 nM.
In turn, B14 had an EC50 of 0.3 nM.
On the same count and under the same terms, then B15, with 2.36 nM.

Another experiment has as its target T1, recombinant SARS-CoV-2 RBD with …. Nature of the experiment: BLI, biotinylated RBD on streptavidin biosensors. For orientation: BLI is a label-free optical method that tracks binding on a fibre tip over time.
With B7, the Kd was 22.5 nM.
The same measure, in the same setting: then B16, with 54 nM; and B9, with 2.63 nM; and B10, with 1.42 nM.
Still for that read-out and setting: then B11, with 219 nM.
On the same count and under the same terms, then B12, with 12.1 nM; and B15, with 44.3 nM.

The next experiment has the same target. Nature of the experiment: ELISA, competition with coated ACE2-Fc for RBD.
With B17, the IC50 was 8.4 nM.
Same read-out and setting: with B18 the figure was 14.5 nM; with B19, 46.5 nM; with B13, 10.4 nM.
Still for that read-out and setting: with B20 the figure was 83.6 nM.

The target is the same in the next experiment. Nature of the experiment: ELISA, competition with coated ACE2-Fc for RBD [Cont. 2].
As for B8, the IC50 came out at 14.2 nM.
The same measure, in the same setting: with B14 the figure was 1.1 nM.
Same read-out and setting: then B21, with 1.8 nM; and B22, with 2.9 nM.

For a further experiment the target is unchanged. Nature of the experiment: ELISA, competition with coated ACE2-Fc for RBD [Cont. 7].
B7: the IC50 came to 5.9 nM.
Same read-out and setting: with B16 the figure was 405 nM.
The same measure, in the same setting: with B10 the figure was 2.8 nM; with B11, 13.1 nM.
On the same count and under the same terms, then B12, with 2 nM; and B15, with 43.6 nM.
